Measurements from the supplement of paper PMC9170038.

Test system: MS2 coat protein
Assay: apparent KD of MS2 coat protein; designed switch direction (-1 OFF switch, 1 ON switch): 1; higher = weaker reporter binding
Method in brief: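 Designed RNA switches with common flanks were transcribed on Illumina chips by stalled E. coli RNA polymerase and titrated with SNAP-549-labelled MS2 coat protein, from 0.7 or 1.5 nM doubling to 3 µM, in Tris-HCl pH 7.5 buffer with KCl, MgCl2, BSA, DTT, tRNA and Tween-20. Steps lasted 0.8–1.5 h (lowest) to 10–20 min (highest). Titrations ran without input, with 200 uM small-molecule ligand, or with an oligonucleotide input. Normalised cluster fluorescence was curve-fitted, and apparent KD is the per-design median over clusters.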

[1] = Eterna round: R95, input ligand: FMN 200 uM
[2] = Eterna round: R95, input ligand: microRNA oligo, concentration not stated
[3] = Eterna round: R95, input ligand: none
[4] = input ligand: microRNA oligo, concentration not stated

| Sequence | apparent KD of MS2 coat protein [1] [µM] | apparent KD of MS2 coat protein [2] [µM] | apparent KD of MS2 coat protein [3] [µM] | apparent KD of MS2 coat protein (input ligand: FMN 200 uM) [µM] | apparent KD of MS2 coat protein [4] [µM] | apparent KD of MS2 coat protein (input ligand: none) [µM] |
| --- | --- | --- | --- | --- | --- | --- |
| UUCCUACAUGAGGAUCACCCAUGUGACGCCUCGAUAGGAUAUGCGUGUGCCUUGGCGCAUGCAGAAGGAUUGUAGC [JL Aveso mod 8] (puzzle: Same State 1) | 0.224 | 0.0276 | 0.0214 |  |  |  |
| GCUACAUGAGGAUCACCCAUGUGUGCGUGGGAGUGAGUGGCUUAGGAUAUCUAUGACUUGAGUUGAGAGAAGGAGGAUUGCUGU [SS-NG3-LRO12] (Eterna round: R96, puzzle: Same State NG 3) |  |  |  | 0.105 | 0.0826 | 0.118 |
| UUUAGUUGCGGGCAGGAUAUGUAUUAAUAUACAUGAGGAUCACCCAUGUGAGAUCGAAUAGAUCUACAGAAGGGCCAAUCGCGAC [Laonerce - 25] (puzzle: Same State 2) | 0.0198 | 0.133 | 0.188 |  |  |  |
| AUGGUGCAGGUACAGGAUAUGUUGCUCGUAACAUGAGGAUCACCCAUGUACCUAUGAGAUUAAAUGCAGAAGGGUGCACACCAAA [Mat - Same State 2 - Mod of UCT - D90] (Eterna round: R96, puzzle: Same State 2) |  |  |  | 0.0381 | 0.224 | 1.35 |
| AUUUCUAAUGCAGGAUAUGAUUAACAUGAGGAUCACCCAUGUGGUGUUGUGAGUAAGGAGAGUGAUCAGAAGGGCAUUUUUUUU [JMF's solution 99] (Eterna round: R96, puzzle: Same State NG 2) |  |  |  | 0.915 | 0.428 | 0.579 |
| UGGCUCAGACGAGGAUAUGGUCAUGGCGCUUCGGCGCAUACAUGAGGAUCACCCAUGUAGGGUGAUCAGAAGGCGUCUGAGCCA [SSNG2/9-A2] (Eterna round: R96, puzzle: Same State NG 2) |  |  |  | 0.0872 | 0.573 | 0.715 |
| GCUACGGCAGUAGGAUAUGUAGGAUAUGGCGAGAGCUAAGCUUGGAAGUCACUUCAGCCAGAAGGACAGAAGGACACCGUGAGG [pwkr ssNG2 2FMN + F9.16] (Eterna round: R96, puzzle: Same State NG 2) |  |  |  | 0.125 | 0.0225 | 0.0247 |
| ACUUGCCGCACAGGAUAUGGGUGCCUGUACAUGAGGAUCACCCAUGUUAAGGGACGGAUUACGAACCAGAAGGGUGAGGCGGGC [Tigeti] (Eterna round: R96, puzzle: Same State NG 2) |  |  |  | 0.124 | 0.418 | 0.75 |
| UUUGGGUGGCUGGAGGAUAUUCGAGUGGUAACAUGAGGAUCACCCAUGUGUCGCGCGGUACACGAGGAGAAGGCUGGCGGCCGUU (puzzle: Same State 2) |  | 0.0417 |  |  |  |  |
| GUAAAACAUGAGGAUCACCCAUGUAAUAAUAUGGGAGGAUAUCAGAAUGUAUGUAUGUAAUGAGAAGGCCUAAAUU [Mat - Same State 1 - Mod of Eli - D75] (puzzle: Same State 1) | 0.0734 | 0.61 | 0.695 |  |  |  |
| CUGAGCAGUCAAGGAUAUCACGUCGAAUAGACGUGAGAAGGUGACCAAUACAUGAGGAUCACCCAUGUAAUACAUGAAGCUCAG [SSNG1/12-A1] (Eterna round: R96, puzzle: Same State NG 1) |  |  |  |  | 0.026 |  |
| AACAAUCUAUCUGAGGAUAUCAUGAAAUAAACAUGAGGAUCACCCAUGUGUAGGAAAACUGCAUAUGAGAAGGCAGAUAGAUUGA [salish99_ss2_r3_036] (puzzle: Same State 2) | 0.0319 | 0.299 | 1.33 |  |  |  |
| AGUCCAGCCUGAGCUGGACAAAAGCAUGUACAUGAGGAUCACCCAUGUCAUGUACAAGUUUUUUGCUCGUUUUAAUA [Zipper 49 - 18] (puzzle: Sensor for hsa-mir-208a) | 0.0489 | 0.0122 | 0.052 |  |  |  |
| GUGGUGUAGAUACAGGAUAUGUUGCUCGUAACAUGAGGAUCACCCAUGUAUCUAUGAGAAUAAAUGCAGAAGGGUGCACACCACG [Mat - Same State 2 - Mod of UCT - D73] (puzzle: Same State 2) | 0.0191 | 0.352 | 0.311 |  |  |  |
| ACAUGAGAACGAGGAUAUUUUGUACCUACAUGUGACAUGAGGAUCACCCAUGUGGUAAGUAUGAGAAAGAAGGCGUAGAUAUGU [Equivalence 14 - Jieux - Same State NG 2] (Eterna round: R96, puzzle: Same State NG 2) |  |  |  | 0.0219 | 0.0306 | 0.029 |
| GGUCGGACCUACAUGAGGAUCACCCAUGUUCCGGAAACGGCACAGGAUAUCUGUCCGAAAAGGUCAGAGAAGGGUGAACCGACC [Fiskers NG3ss - 75] (Eterna round: R96, puzzle: Same State NG 3) |  |  |  | 1 | 0.508 | 1.88 |
